# Key:
# [1] = target: LC3B residues 1-120 F52A/L53A (UniProt Q9GZQ8); assay: ITC
# LC3B residues 1-120 WT = LC3B residues 1-120 WT (UniProt Q9GZQ8); assay: ITC
substance,measurement,setting,value
tepsin LIR motif peptide (residues 185-193),Kd,[1],> 300 µM
same,Kd,LC3B residues 1-120 WT,44.4 µM
same,stoichiometry N,LC3B residues 1-120 WT,0.523

# From article PMC11064669
